Target: Dlg1 (endogenous, mouse T cells) (mouse, UniProt Q811D0 1-905, limits assumed)
Test: co-immunoprecipitation from activated mouse CD4+ T cell extracts, anti-Dlg1 IP, anti-Crtam immunoblot
Description: (A) Naïve CD4⁺ T cells from Crtam^{-/+} and Crtam^{-/-} mice were activated for the indicated times and cell extracts were immunoprecipitated with Abs against Scrib (upper panels) or Dlg1 (lower panels). Immune complexes were then analyzed by immunoblotting against Crtam. Data shown are representative of five independent experiments.
To assess the interaction of Crtam and PDZ-containing proteins, microbead purified CD4⁺ T cells were stimulated with plate-bound […] (10 μg/ml) and anti-CD28 (2 μg/ml) mAbs, whole cell extracts were immunoprecipitated using anti-Scrib antibody (K-21, Santa Cruz) and immune complexes analyzed by immunoblotting with anti-Crtam mAb (6E2, Genentech) or anti-Scrib Ab (H-300, Santa Cruz). The control experiment was performed using anti-Dlg1 Ab (H-60, Santa Cruz) for immunoprecipitation. […] Crtam-Flag was immunoprecipitated using anti-Flag M2-agarose beads (Sigma) and immune complexes were analyzed by immunoblotting with anti-GST (GE Healthcare Bio-Sciences) or anti-Crtam (6E2) mAbs.
To define the mechanism(s) by which Crtam regulates T cell morphology, we analyzed the ability of Scrib and Dlg1 to co-immunoprecipitate with Crtam in resting and activated T cells (FIG. 5A). Crtam was detected in Scrib, but not Dlg1, immunoprecipitates 14 h following TCR activation. […]

Dlg1 (endogenous, mouse T cells), sequence (Q811D0 whole entry): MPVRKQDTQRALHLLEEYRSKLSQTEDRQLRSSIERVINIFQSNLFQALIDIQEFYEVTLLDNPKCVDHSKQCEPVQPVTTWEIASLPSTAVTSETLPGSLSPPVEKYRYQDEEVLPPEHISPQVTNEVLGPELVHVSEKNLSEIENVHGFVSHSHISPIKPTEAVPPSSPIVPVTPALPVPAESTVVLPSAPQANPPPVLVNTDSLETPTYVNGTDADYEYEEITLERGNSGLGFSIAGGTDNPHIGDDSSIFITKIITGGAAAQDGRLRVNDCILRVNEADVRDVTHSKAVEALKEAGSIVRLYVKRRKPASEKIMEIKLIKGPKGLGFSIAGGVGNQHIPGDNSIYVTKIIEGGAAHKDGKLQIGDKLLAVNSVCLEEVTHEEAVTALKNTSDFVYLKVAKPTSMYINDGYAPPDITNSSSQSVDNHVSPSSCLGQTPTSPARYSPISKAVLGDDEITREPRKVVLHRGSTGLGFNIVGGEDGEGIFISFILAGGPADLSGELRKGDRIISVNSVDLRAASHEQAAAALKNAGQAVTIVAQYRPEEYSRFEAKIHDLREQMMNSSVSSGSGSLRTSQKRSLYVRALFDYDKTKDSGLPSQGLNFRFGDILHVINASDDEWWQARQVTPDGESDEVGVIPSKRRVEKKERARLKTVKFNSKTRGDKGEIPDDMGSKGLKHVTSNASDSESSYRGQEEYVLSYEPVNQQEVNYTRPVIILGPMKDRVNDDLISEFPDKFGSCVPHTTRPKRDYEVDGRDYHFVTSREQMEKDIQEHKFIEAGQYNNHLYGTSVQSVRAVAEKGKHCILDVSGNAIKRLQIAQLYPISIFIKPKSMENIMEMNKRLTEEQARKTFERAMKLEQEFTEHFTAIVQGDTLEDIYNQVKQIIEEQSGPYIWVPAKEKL

B1: mouse Crtam (endogenous, on activated mouse T cells) (receptor)
chain: AFLKMETVTVEEGQTLTLTCVTSQTKNVSLQWLAPSGFTIFLNQHPALKSSKYQLLHHSATQLSISVSNVTLREEGVYTCLHYGSSVKTKQVRVTVLVTPFQPTVEALVLRRQNGEKSVVLKCSTERSKPPPQITWLLGEGLEIYGELHHEFEADGKICNTSSTLIARAYGKNSTVHCIIQHEGLHGRKLVAPFQFEDLVADQETTSDAPEQSSLSSQALQQPTSTVSMMENSSIPETDKEEKEHATQDPGLSTASAQHTGLARRKSGILLLTLVSFLIFILFIIVQLFIMKLRKAHVVWKKESEISEQALESYRSRSNNEETSSQENSSQAPQSKRCMNYITQLYSGAKTKKSAQHWKLGGKHSRVPESIV
notes: Endogenous protein of mouse CD4+ or CD8+ T cells; In the co-immunoprecipitations it came from whole cell extracts; In flow cytometry and the Cadm1(ECD)-Fc assay it was on the cell surface; also called class-I MHC restricted T-cell associated molecule
- binding result: no binding

— patent US20100247430A1 (published 2010)
